Source: patent publication US20260007714A1 (TEN PEAKS, published 2026)

B1: SEQ ID NO: 2 (TKGPSVFPL), synthetic peptide derived from the infliximab heavy chain (peptide)
peptide: TKGPSVFPL
notes: Synthetic peptide (Genscript) derived from infliximab; also called 3901_tkg
B2: SEQ ID NO: 1 (THQGLSSPV), synthetic peptide derived from the infliximab light chain (peptide)
peptide: THQGLSSPV
notes: Synthetic peptide (Genscript) derived from infliximab; also called 3901_thq

Assays:
[1] = biological target: T1, HLA-B*57:01 (human); assay: refolding of HLA with synthetic peptide, size-exclusion chromatography (FIG. 4A)
T1 construct: the method paragraph describes expression only for HLA-B*39:01; also called HLA-B*057:01

[2] = biological target: T2, HLA-B*15:01 (human); assay: refolding of HLA with synthetic peptide, size-exclusion chromatography (FIG. 4B)
T2 construct: the method paragraph describes expression only for HLA-B*39:01

Binder	binding result [1]	binding result [2]
B1	no binding	no binding
B2	no binding	no binding
